Experimental data taken from US20030027764A1.

Tests used:
Assay in all cases: cell-based or functional assay
[1] = target: daboiatoxin, the major PLA2 toxin of Daboia russelli siamensis venom (Daboia russelli siamensis)
[2] = target: Bee venom (Apis melifera) PLA2 (Apis mellifera) (UniProt P00630)
[3] = target: Taipoxin (Oxyuranus scutellatus PLA2) (Oxyuranus scutellatus) (UniProt P00614)
Taipoxin (Oxyuranus scutellatus PLA2) (Oxyuranus scutellatus), sequence (P00614 whole entry, chain 1 of 3): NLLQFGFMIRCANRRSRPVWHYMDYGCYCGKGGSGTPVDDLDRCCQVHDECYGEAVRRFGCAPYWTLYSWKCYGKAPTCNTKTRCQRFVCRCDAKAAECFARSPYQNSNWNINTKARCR
Taipoxin (Oxyuranus scutellatus PLA2) (Oxyuranus scutellatus), sequence (P00615 28-145, chain 2 of 3, further chain): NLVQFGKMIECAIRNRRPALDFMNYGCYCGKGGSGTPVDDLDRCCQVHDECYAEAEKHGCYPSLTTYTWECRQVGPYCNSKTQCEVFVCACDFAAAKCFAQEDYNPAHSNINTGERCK
Taipoxin (Oxyuranus scutellatus PLA2) (Oxyuranus scutellatus), sequence (P00616 20-152, chain 3 of 3, further chain): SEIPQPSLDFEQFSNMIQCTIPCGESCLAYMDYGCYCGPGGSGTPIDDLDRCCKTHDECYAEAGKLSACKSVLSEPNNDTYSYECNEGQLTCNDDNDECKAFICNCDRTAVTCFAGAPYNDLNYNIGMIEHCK

Bee venom (Apis melifera) PLA2 (Apis mellifera), sequence (P00630 34-167): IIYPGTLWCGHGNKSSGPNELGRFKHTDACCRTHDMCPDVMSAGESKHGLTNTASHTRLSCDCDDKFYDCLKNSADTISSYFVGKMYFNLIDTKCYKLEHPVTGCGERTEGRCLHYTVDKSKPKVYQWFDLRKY
recombinant Python Antitoxic Factor (PAF), later renamed Phospholipase Inhibitor from Python (PIP),, sequence (Q9I8P7 20-201): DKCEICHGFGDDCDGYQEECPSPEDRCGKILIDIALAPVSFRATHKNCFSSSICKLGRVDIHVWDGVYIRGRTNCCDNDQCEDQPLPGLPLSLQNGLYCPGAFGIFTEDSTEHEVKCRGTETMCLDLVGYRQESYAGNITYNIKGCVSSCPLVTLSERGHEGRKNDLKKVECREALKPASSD

Row | Substance | % Inhibition of paw oedema; DbTx (1 µg) + 100 µg AIP-2 [1] | % Inhibition of paw oedema; Bee venom PLA2 (1 µg) + 100 µg AIP-2 [2] | % Inhibition of paw oedema; DbTx (1 µg) + 50 µg PIP [1] | % Inhibition of paw oedema; DbTx (1 µg) + 100 µg PIP [1] | % Inhibition of paw oedema; Bee venom PLA2 (1 µg) + 50 µg PIP [2] | % Inhibition of paw oedema; Bee venom PLA2 (1 µg) + 100 µg PIP [2] | % Neutralisation [3]
1 | anti-inflammatory peptide-2 from Sigma | 35.3% | 33.6% | – | – | – | – | –
2 | recombinant Python Antitoxic Factor (PAF), later renamed Phospholipase Inhibitor from Python (PIP), (from UniProt Q9I8P7 20-201) | – | – | 89.2% | 92.2% | 39.9% | 78.1% | 50%
